± gives the uncertainty stated by the source.

To fix the notation:
B1: Poly(rC)-binding protein 1, residues 278 to 350; numbered along this chain, Q15365 (parent)
chain: TQTTHELTIPNNLIGCIIGRQGANINEIRQMSGAQIKIANPVEGSSGRQVTITGSAASISLAQYLINARLSSE

In this series the parent is B1. The series is described as follows: abundance fitness (aPCA) (normalised: wild type 0, dead -1); higher = more abundant; growth selection in yeast, the domain comes from the species named. To be noted: Homo sapiens.
Take S55H: the abundance fitness is -0.047 ± 0.085.

Take S55A: the abundance fitness is -0.239 ± 0.042.

In the case of S55G, the abundance fitness is -0.21 ± 0.034.

Regarding N67D, the abundance fitness turned out to be 0.066 ± 0.099.

With N67S, the abundance fitness was -0.019 ± 0.072.

In the case of N67G, the abundance fitness was -0.082 ± 0.051.

Consider N67M, for which the abundance fitness was -0.135 ± 0.089.

With N67L, the abundance fitness is -0.18 ± 0.079.

N67Q: the abundance fitness is -0.32 ± 0.11.

Take S72N: the abundance fitness was 0.161 ± 0.23.

Take S72P: the abundance fitness is -0.562 ± 0.38.

In the case of S72E, the abundance fitness was found to be 0.222 ± 0.11.

In the case of S72M, the abundance fitness is -0.058 ± 0.13.

Consider Q63V, for which the abundance fitness is -0.019 ± 0.046.

On to Q63I, for which the abundance fitness is 0.064 ± 0.12.

Consider Q63A, for which the abundance fitness is -0.077 ± 0.045.

With E73A, the abundance fitness was 0.078 ± 0.42.

For the variant E73C, the abundance fitness was -0.14 ± 0.17.

For the variant E73P, the abundance fitness was -0.161 ± 0.41.

E73G: the abundance fitness is -0.016 ± 0.1.

Turning to T4S, the abundance fitness was 0.008 ± 0.053.

For the variant T4A, the abundance fitness is -0.109 ± 0.053.

Consider T4H, for which the abundance fitness is -0.26 ± 0.13.

For M31Q, the abundance fitness is 0.095 ± 0.047.

For the variant M31G, the abundance fitness was -0.347 ± 0.043.

Turning to M31Y, the abundance fitness is -0.056 ± 0.16.

For the variant M31P, the abundance fitness is -0.894 ± 0.17.

In the case of M31A, the abundance fitness was 0.038 ± 0.046.

M31I: the abundance fitness is -0.196 ± 0.14.

Regarding L70K, the abundance fitness is -0.378 ± 0.46.

Consider L70V, for which the abundance fitness was -0.05 ± 0.15.

Consider L70R, for which the abundance fitness was -0.53 ± 0.22.

As to L70I, the abundance fitness is -0.217 ± 0.36.

In the case of K37C, the abundance fitness is -0.4 ± 0.17.

In the case of K37V, the abundance fitness was -0.032 ± 0.032.

For the variant K37P, the abundance fitness was -0.718 ± 0.17.

K37S: the abundance fitness is -0.11 ± 0.066.

Regarding K37W, the abundance fitness was -0.215 ± 0.051.

In the case of T8W, the abundance fitness is -0.064 ± 0.049.

Turning to T8H, the abundance fitness amounted to 0.017 ± 0.13.

Consider T8Q, for which the abundance fitness is -0.076 ± 0.094.

Consider T8I, for which the abundance fitness is -0.008 ± 0.14.

As to T8Y, the abundance fitness is 0.05 ± 0.11.

Consider G15A, for which the abundance fitness was -0.092 ± 0.047.

Turning to G15D, the abundance fitness came out at 0.002 ± 0.093.

As to G15R, the abundance fitness was -0.136 ± 0.043.

Take G15F: the abundance fitness is -0.438 ± 0.24.

In the case of G15S, the abundance fitness is -0.035 ± 0.051.

With G15C, the abundance fitness is -0.353 ± 0.093.

Turning to G15E, the abundance fitness was -0.062 ± 0.05.

On to A57F, for which the abundance fitness is -0.096 ± 0.12.

Consider A57W, for which the abundance fitness was -0.247 ± 0.055.

For the variant A57N, the abundance fitness is 0.061 ± 0.086.

Regarding N40Q, the abundance fitness is 0.086 ± 0.048.

For the variant N40K, the abundance fitness is 0.02 ± 0.056.

Turning to N40G, the abundance fitness was found to be 0.026 ± 0.029.

As to N40Y, the abundance fitness was -0.165 ± 0.1.

Consider N40W, for which the abundance fitness was -0.512 ± 0.053.

For the variant P41C, the abundance fitness is -0.09 ± 0.065.

As for P41Y, the abundance fitness is -0.021 ± 0.1.

Turning to P41T, the abundance fitness was -0.081 ± 0.058.

As for P41R, the abundance fitness was found to be 0.018 ± 0.035.

Regarding P41I, the abundance fitness was -0.196 ± 0.12.

P41M: the abundance fitness stood at 0.115 ± 0.057.

Turning to T53Q, the abundance fitness is -0.075 ± 0.053.

As to T53V, the abundance fitness is -0.118 ± 0.039.

Turning to T53N, the abundance fitness was -0.385 ± 0.16.

With T53F, the abundance fitness is -0.321 ± 0.12.

T53W: the abundance fitness was -0.274 ± 0.049.

I52S: the abundance fitness is -0.574 ± 0.09.

Regarding I52Y, the abundance fitness was -1.09 ± 0.39.

With I52P, the abundance fitness is -0.698 ± 0.15.

I52G: the abundance fitness was -1.05 ± 0.1.

As to I52N, the abundance fitness is -0.878 ± 0.47.

I36M: the abundance fitness was -0.648 ± 0.078.

With I36L, the abundance fitness is -0.406 ± 0.045.

I36E: the abundance fitness is -0.986 ± 0.18.

Regarding I36Y, the abundance fitness was -0.767 ± 0.43.

Take E43W: the abundance fitness was -0.18 ± 0.091.

As to E43I, the abundance fitness was 0.01 ± 0.065.

With E43N, the abundance fitness was -0.024 ± 0.054.

Regarding E43G, the abundance fitness was -0.115 ± 0.077.

Turning to Y64M, the abundance fitness was -0.098 ± 0.11.

Take Y64T: the abundance fitness was 0.287 ± 0.059.

In the case of Y64E, the abundance fitness is 0.298 ± 0.053.

With Y64Q, the abundance fitness was found to be 0.14 ± 0.098.

For the variant Y64S, the abundance fitness was found to be 0.24 ± 0.05.

On to Y64R, for which the abundance fitness came to 0.28 ± 0.043.

Take Y64W: the abundance fitness is -0.209 ± 0.11.

Regarding Y64C, the abundance fitness stood at 0.195 ± 0.09.

Regarding N26G, the abundance fitness was -0.27 ± 0.038.

Regarding N26W, the abundance fitness was -0.34 ± 0.047.

On to N26S, for which the abundance fitness was -0.003 ± 0.041.

For N26V, the abundance fitness was -0.327 ± 0.042.

With E6M, the abundance fitness was 0.07 ± 0.067.

Regarding E6R, the abundance fitness is 0.164 ± 0.04.

E6P: the abundance fitness is -0.965 ± 0.37.

Turning to V42N, the abundance fitness was -0.272 ± 0.13.

Take V42Y: the abundance fitness was -0.141 ± 0.1.

Turning to V42R, the abundance fitness is -0.012 ± 0.032.

Turning to V42W, the abundance fitness is -0.525 ± 0.061.

V42L: the abundance fitness is -0.151 ± 0.045.

In the case of V42H, the abundance fitness is -0.186 ± 0.12.

For the variant V42C, the abundance fitness was -0.086 ± 0.085.

Regarding Q30A, the abundance fitness came to 0.001 ± 0.047.

Q30W: the abundance fitness is -0.334 ± 0.056.

For the variant Q30C, the abundance fitness was -0.341 ± 0.13.

Regarding L65A, the abundance fitness is 0.076 ± 0.056.

Take L65P: the abundance fitness was -0.779 ± 0.25.

Take G33A: the abundance fitness is -0.405 ± 0.056.

As for G33K, the abundance fitness was -0.362 ± 0.066.

For the variant G33V, the abundance fitness was -1.05 ± 0.12.

Turning to I38R, the abundance fitness is -0.737 ± 0.068.

For the variant I38V, the abundance fitness was -0.094 ± 0.041.

For the variant I38Q, the abundance fitness is -0.828 ± 0.14.

As to I25V, the abundance fitness was -0.308 ± 0.053.

With I25D, the abundance fitness is -0.908 ± 0.41.

On to I25S, for which the abundance fitness is -0.674 ± 0.095.

Turning to I25N, the abundance fitness is -0.931 ± 0.35.

Regarding I25G, the abundance fitness was -0.58 ± 0.057.

For the variant I25P, the abundance fitness is -0.84 ± 0.19.

On to I25T, for which the abundance fitness is -0.367 ± 0.095.

With I25A, the abundance fitness is -0.565 ± 0.072.

For the variant G54E, the abundance fitness was -0.838 ± 0.13.

Turning to A56V, the abundance fitness is -0.072 ± 0.047.

As to A56I, the abundance fitness is -0.024 ± 0.11.

For I59W, the abundance fitness is -0.752 ± 0.082.

For I59A, the abundance fitness was -0.044 ± 0.035.

For I59P, the abundance fitness was -0.764 ± 0.098.

For the variant I59L, the abundance fitness is -0.355 ± 0.061.

With I59T, the abundance fitness is -0.008 ± 0.044.

Regarding L7S, the abundance fitness was -0.468 ± 0.072.

Regarding L7V, the abundance fitness was -0.043 ± 0.048.

Turning to L7P, the abundance fitness is -1.03 ± 0.34.

In the case of L7W, the abundance fitness is -0.274 ± 0.053.

Turning to A68M, the abundance fitness is -0.032 ± 0.1.

On to A68L, for which the abundance fitness is -0.206 ± 0.084.

For A68S, the abundance fitness was 0.048 ± 0.078.

On to A68H, for which the abundance fitness turned out to be 0.188 ± 0.2.

Consider A68R, for which the abundance fitness is -0.001 ± 0.061.

For A68Q, the abundance fitness came out at 0.14 ± 0.11.

Take A68C: the abundance fitness came to 0.271 ± 0.14.

With A68F, the abundance fitness was -0.459 ± 0.35.

In the case of A34S, the abundance fitness is -0.122 ± 0.073.

Take A34K: the abundance fitness is -0.943 ± 0.2.

For A34T, the abundance fitness was 0.023 ± 0.071.

In the case of A34L, the abundance fitness was -1.18 ± 0.31.

For N12C, the abundance fitness was -0.267 ± 0.12.

For N12D, the abundance fitness was -0.272 ± 0.11.

Turning to N12A, the abundance fitness was -0.148 ± 0.049.

Consider N12V, for which the abundance fitness is -0.306 ± 0.06.

Consider G47W, for which the abundance fitness was -0.073 ± 0.047.

G47S: the abundance fitness came to 0.023 ± 0.043.

Take G47Y: the abundance fitness was -0.008 ± 0.085.

On to G47H, for which the abundance fitness is -0.129 ± 0.094.

On to G47T, for which the abundance fitness worked out at 0.008 ± 0.052.

For the variant G47N, the abundance fitness was found to be 0.047 ± 0.099.

Consider G47E, for which the abundance fitness is 0.067 ± 0.039.

For the variant L61D, the abundance fitness came to 0.02 ± 0.07.

As for L61V, the abundance fitness was -0.052 ± 0.041.

For the variant L61S, the abundance fitness came to 0.084 ± 0.039.

As to L61K, the abundance fitness is 0.266 ± 0.039.

For A62F, the abundance fitness was -0.657 ± 0.26.

As to A62V, the abundance fitness is -0.448 ± 0.07.

On to A62P, for which the abundance fitness is -0.606 ± 0.1.

With A62M, the abundance fitness is -0.948 ± 0.16.

Take A62R: the abundance fitness is -0.734 ± 0.083.

The record behind these values is the Human Domainome abundance scans (Beltran et al. 2025).
